Drawing on article PMC2984483, this text covers binding for ten sequences.

Holding throughout (settings): EMSA: 0.1 ng 32P probe, 15 ul, 30 min at 25 C (stated for GadE/RcsBD56E), 6% native PAGE; H-NS: 100-200 ng PCR fragment plus pBR322 digest, 15 min room …
Data set [1] has as its target T1, H-NS-His6 (Escherichia coli) (UniProt P0ACF8).
T1 sequence: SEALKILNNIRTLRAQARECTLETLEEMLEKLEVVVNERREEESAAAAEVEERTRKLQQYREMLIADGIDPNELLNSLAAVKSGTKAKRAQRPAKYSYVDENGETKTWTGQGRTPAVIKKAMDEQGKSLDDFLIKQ
Nature of the data set: competitive EMSA. In general terms: A gel shift assay detects complexes by their altered migration in electrophoresis.

For data set [2], the target named is T2, His6-RcsBD56E;GadE-His6 D56E (Escherichia coli;Escherichia coli) (UniProt P0DMC7+P63204).
T2 sequence 1: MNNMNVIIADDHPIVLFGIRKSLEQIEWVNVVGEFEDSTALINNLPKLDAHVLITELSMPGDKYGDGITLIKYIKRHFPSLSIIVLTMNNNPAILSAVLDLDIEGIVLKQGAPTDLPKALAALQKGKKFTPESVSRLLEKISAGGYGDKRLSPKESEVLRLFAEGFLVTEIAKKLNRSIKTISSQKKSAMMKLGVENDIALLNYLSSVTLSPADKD
T2 sequence 2: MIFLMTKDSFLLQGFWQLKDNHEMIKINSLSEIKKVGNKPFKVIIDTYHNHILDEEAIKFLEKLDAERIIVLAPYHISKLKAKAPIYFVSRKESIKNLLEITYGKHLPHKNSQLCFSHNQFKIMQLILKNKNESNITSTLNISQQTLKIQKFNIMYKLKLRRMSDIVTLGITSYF
As to the kind of experiment: EMSA.

For data set [3], the target named is T3, Strep-AdiY (Escherichia coli) (UniProt P33234).
T3 sequence: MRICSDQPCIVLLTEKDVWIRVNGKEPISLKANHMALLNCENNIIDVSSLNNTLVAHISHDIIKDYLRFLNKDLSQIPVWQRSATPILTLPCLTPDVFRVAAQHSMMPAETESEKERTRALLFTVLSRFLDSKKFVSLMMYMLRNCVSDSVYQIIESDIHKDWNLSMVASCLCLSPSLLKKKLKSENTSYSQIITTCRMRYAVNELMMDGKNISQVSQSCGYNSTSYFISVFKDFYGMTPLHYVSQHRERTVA
As to the kind of experiment: EMSA.

In data set [4] the target is T4, HdfR-His6 (Escherichia coli) (UniProt P0A8R9).
T4 sequence: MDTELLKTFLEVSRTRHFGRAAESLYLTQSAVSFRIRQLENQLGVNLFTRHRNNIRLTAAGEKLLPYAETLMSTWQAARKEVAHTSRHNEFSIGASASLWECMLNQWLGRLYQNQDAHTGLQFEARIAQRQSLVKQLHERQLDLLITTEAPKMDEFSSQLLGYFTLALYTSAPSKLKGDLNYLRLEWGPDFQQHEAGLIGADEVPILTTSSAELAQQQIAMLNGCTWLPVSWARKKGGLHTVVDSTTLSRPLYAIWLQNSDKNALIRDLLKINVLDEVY
As to the kind of experiment: EMSA.

For the sequence “AATGATACTTGTCTGAAAAACAGATTTACGACGATATAAAATAATAATACTTATATGTTCGCTGATTTTAAGCACCGAGACTATCCGGTCTTTTACCAAATAATGAAGAATAATCCCTCCCTGGAAGATAATTGTAAAAAACAACAGCATAAGAATTAATCTTAGGATAAATTTTTATTTATCATGGCCTTTTGAACGCTGAAAAGTAGCGCTCTGCAAAGTAAACCCCGCTATAGTTATGCTATGCATTTGTCTTTAATGATATCTCGTCATTATATTAACAGGATGAAATTATCATTA (double strand) [yhiM promoter]”, the binding result in data set [1] and in data set [2] was “binds” throughout.

With “ATCCTGCACGCTCCTAATTCTTTGACCGAGCTAGTTATGGCGCGGAGTATTAGTTACGCTTGACAGAGTGTAAAACAAAACATTTAAATCATAACGACAAATAATTTTGCGGAGAGCACTGTGGATACGGAATTGTTAAAAACTTTCCTGGAAGTTAGCCGAACGCGTCACTTTGGTCGAGCGGCTGAATCGCTCTATCTGACCCAGTCAGCAGTGAGCTTTCGAATCAGACAACTGGAAAATCAACTGGGTGTGAACCTT (double strand) [hdfR promoter]”, the binding result in data set [1] is given as “binds”. Regarding “ATGCCAAAAACGCGTCTAAGAATGCAGTCGATTTAATAAAAATTTCCTAATTGCAGTATCTGATGCATCTGTAACTCATTGTATTGAAATAAAAATATCTGATTTTGATATTTTCCATCAACATGACATATACAGAAAACCAGGTTATAACCTCAGTGTCG (double strand) [hdeABD promoter]”, the binding entry in data set [3] is recorded as “no binding”. For the sequence “CGCATAATTTCCAGCAATCTTTGTTTATTTGCAATTATTTTTGTTGGGCTTTTTGTAGGTTATTTGTACAGCAAAATGGCGCTTGTACATCTATTTCCCCCAATGCAGGATGATAAATATCACGGGAGAATAGAGAATCATCAATCAGGTAAGAGTCTGGAATTTCACACTGTACCCTTTATACTGCCCT (double strand) [rcsD promoter]”, the binding result in data set [1] is listed as “binds”. As to “GAATAAAAATAGATTTTATGTACTTTTAAAACAATGCACTATATTATGGGGTGATGGATATTCATGTCACGCCCCAAAATTAACTGAGTTCACCTAAACAGAAAGGATATAAACATCAGACAGGTTTACGTTACTATCAGGCATATCACCTCAGAATCAGATGAAAACTATAAAGAAATATCTATTATGGTTTTAA (double strand) [slp-dctR promoter]”, the binding result in data set [1] is reported as “binds”; in data set [3], “no binding”. Consider “GGTCGCTCCTTGCCTGAAGTCATCCTTCAATACGTTAAGGGCGAAATCATACCGTGGGGCAATGAGTTATTACGGGCGTTTATTGCGAAGGGAGGGTGACGAAATGCACAGAAAACAAAA (double strand) [aslB promoter]”, for which the binding entry in data set [2] was “binds”; in data set [4], “no binding”; in data set [3], “no binding”. On to “TCGTTATGCAGCGATATTTTTTGCTGTTCATGATAAATATCGAATGAACGACGAATGAGGATCACCGAGCAGACATGAGTCATGATTATCCCTTATATTTCATACTGCGATTATTTCAATTTCAGTATACTAATGAAATGATGCCAGACTGTTTCTTAGCGCAAAAACTGCCAGATTTGGTAGGACCAAAATTTATCCACAAAGTAGTTTTGCATAACAGTTAATTGATAATAAGTAAATGCAGCACGAATATATTTTCGCACAGCGTATAGCTTA (double strand) [gadW promoter]”, for which the binding result in data set [1] was “binds”.

Consider “TGGCCTTAGGCCTTTTGAGTATGGCAACGTTTTCATAAAAATTGCTGCAAACAAAAATGTCATACTTTTTGCGCGGCCCCACCCCGCGCTTTTTTTTGCCTGTTATTTATCCTGTAAAAAAATATGTACATGAGAAATTACTATAAAAATTTGTACTATTAGTAAAAC (double strand) [adiY promoter]”, for which the binding result in data set [1] is “binds”.

Consider “TTATATATCCATGTTGGCGATAATCCCTTTGTATGTACTGTGCATCATCGCTATTACAAATCCTAATAATTCATTTCCACACAGGATAAGTAGATGAAGAAAAAAATTGAATC (double strand) [ydeP promoter]”, for which the binding result in data set [1] was “binds”.

As for “TTGCTCATGCAAAGACTAACAATCCATTAAAATAGTAAGTGCTCCGGACAATTTTCCATGGATTATTTTCTGAACATTTTTCTTTGGCAAAGATGATGAATTTTGATGGTAAGGAATATTACTTCTGGTTCTCAGTAAAATCCTTTCGTAATACTATGTAATCAAGAAGTTTATGGCTGGTAAAAATAACGTCTTGCATTCACCAATAATATGTAAATAAACCCATCTATAGATGGTAAAAATAGGTTGTGGCAATTATCATTGCATCATTCCCTTTTCGAATG (double strand) [cadC promoter]”, the binding entry in data set [1] is “binds”.
